28 molecules from patent US20150166606A1 (RA PHARMACEUTICALS, published 2015) can be followed below.

Bridge positions count the residues as written; N and C are the ends. Square brackets hold non-standard residues; d marks the D form. Ends that are not written are not given here. * marks the point of attachment. mXylyl = xylyl linker from dibromoxylene joining the two cysteines; des‑NH2 = missing amino-terminal amine group; Gly(octyl) = CCCCCCCC[C@H](N)C(=O)O; Gly(cPent) = N[C@H](C(=O)O)C1CCCC1; Gly(cPr) = N[C@H](C(=O)O)C1CC1; dPhg = N[C@@H](C(=O)O)c1ccccc1; Chg = N[C@H](C(=O)O)C1CCCCC1; Phg = N[C@H](C(=O)O)c1ccccc1; Tle = CC(C)(C)[C@H](N)C(=O)O; NMeV = CN[C@H](C(=O)O)C(C)C; NMeS = CN[C@@H](CO)C(=O)O; azaTrp = not defined here; Heptanoyl = CCCCCCC(=O)*; Nle = CCCC[C@H](N)C(=O)O; Aib = CC(C)(N)C(=O)O; Mpa = O=C(O)CCS

The chains are these.
B1: R2063 (peptide)
peptide: Ac-CASVCRV-NH2
modifications: linker 1-5 via mXylyl; not fully specified (residue 2); printed as [mXylyl(1,5)]Ac-C-a-SVCRV-NH2
B2: R2069 (peptide)
peptide: Heptanoyl-CA[NMeS][dPhg]CR[Tle]-NH2
modifications: linker 1-5 via mXylyl; not fully specified (residue 2); printed as [mXylyl(1,5)]Heptanoyl-C-a-nMeS-(D)Phg-C-R-Tbg-NH2
B3: R2068 (peptide)
peptide: Heptanoyl-CA[NMeS][Phg]CR[Tle]-NH2
modifications: linker 1-5 via mXylyl; not fully specified (residue 2); printed as [mXylyl(1,5)]Heptanoyl-C-a-nMeS-Phg-C-R-Tbg-NH2
B4: R2076 (peptide)
peptide: {des‑NH2}-CGA[Phg]CR[Tle]-NH2
modifications: linker 1-5 via mXylyl; not fully specified (residue 1); printed as [mXylyl(1,5)](des-NH2)C-GA-Phg-CR-Tbg-NH2
B5: R2071 (peptide)
peptide: Ac-CAS[Phg]CR[Chg]-NH2
modifications: linker 1-5 via mXylyl; not fully specified (residue 2); printed as [mXylyl(1,5)]Ac-C-a-S-Phg-CR-Chg-NH2
B6: R2070 (peptide)
peptide: Ac-CAS[Phg]CR[Gly(cPr)]-NH2
modifications: linker 1-5 via mXylyl; not fully specified (residue 2); printed as [mXylyl(1,5)]Ac-C-a-S-Phg-CR-Cppg-NH2
B7: R2072 (peptide)
peptide: {des‑NH2}-CAAICRV-NH2
modifications: linker 1-5 via mXylyl; not fully specified (residue 1); printed as [mXylyl(1,5)](des-NH2)C-AAICRV-NH2
B8: R2061 (peptide)
peptide: Ac-CAS[Phg]CR[Tle]-NH2
modifications: linker 1-5 via mXylyl; not fully specified (residue 2); printed as [mXylyl(1,5)]Ac-C-a-S-Phg-CR-Tbg-NH2
B9: R2066 (peptide)
peptide: Heptanoyl-CAS[dPhg]CR[Tle]-NH2
modifications: linker 1-5 via mXylyl; not fully specified (residue 2); printed as [mXylyl(1,5)]Heptanoyl-C-a-S-(D)Phg-C-R-Tbg-NH2
B10: R2075 (peptide)
peptide: {des‑NH2}-CAA[Phg]CR[Tle]-NH2
modifications: linker 1-5 via mXylyl; not fully specified (residue 1); printed as [mXylyl(1,5)](des-NH2)C-AA-Phg-CR-Tbg-NH2
B11: R2073 (peptide)
peptide: {des‑NH2}-C[Gly(octyl)]S[Phg]CR[Tle]-NH2
modifications: linker 1-5 via mXylyl; not fully specified (residue 1); printed as [mXylyl(1,5)](des-NH2)C-OctG-S-Phg-CR-Tbg-NH2
B12: R2067 (peptide)
peptide: Heptanoyl-CAS[Phg]CR[Tle]-NH2
modifications: linker 1-5 via mXylyl; not fully specified (residue 2); printed as [mXylyl(1,5)]Heptanoyl-C-a-S-Phg-C-R-Tbg-NH2
B13: R2080 (peptide)
peptide: [Mpa][code a]S[Phg]C[azaTrp][Tle]-NH2
modifications: linker 1-5 via mXylyl; reading uncertain; also: printed as [mXylyl(1,5)](des-NH2)C-a-S-Phg-C-azaTrp-Tbg-NH2
B14: R2062 (peptide)
peptide: Ac-CAS[Gly(cPr)]CRV-NH2
modifications: linker 1-5 via mXylyl; not fully specified (residue 2); printed as [mXylyl(1,5)]Ac-C-a-S-Cppg-CRV-NH2

Sequence of Activated human plasma kallikrein (Enzyme Research Laboratories, HPKa 1303) (P03952 20-638 limits assumed): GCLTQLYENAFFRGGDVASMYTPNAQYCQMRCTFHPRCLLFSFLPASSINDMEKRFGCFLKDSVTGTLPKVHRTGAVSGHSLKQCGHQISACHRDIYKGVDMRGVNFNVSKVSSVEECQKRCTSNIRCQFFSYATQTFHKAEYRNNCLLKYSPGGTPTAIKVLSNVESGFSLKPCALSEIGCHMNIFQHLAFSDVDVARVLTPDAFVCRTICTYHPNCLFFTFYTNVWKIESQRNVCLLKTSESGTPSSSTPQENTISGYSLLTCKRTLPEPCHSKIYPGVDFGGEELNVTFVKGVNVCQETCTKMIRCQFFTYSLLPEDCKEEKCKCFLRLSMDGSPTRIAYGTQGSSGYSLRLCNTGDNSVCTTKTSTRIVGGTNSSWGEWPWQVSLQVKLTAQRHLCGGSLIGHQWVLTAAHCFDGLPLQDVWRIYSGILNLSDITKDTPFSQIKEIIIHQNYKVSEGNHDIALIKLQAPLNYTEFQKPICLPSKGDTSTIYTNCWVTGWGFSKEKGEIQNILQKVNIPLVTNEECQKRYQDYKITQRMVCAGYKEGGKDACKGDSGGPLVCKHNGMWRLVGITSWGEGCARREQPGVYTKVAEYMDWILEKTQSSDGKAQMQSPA

This experiment addresses Activated human plasma kallikrein (Enzyme Research Laboratories, HPKa 1303) (human, UniProt P03952 20-638). Description: cell-based or functional assay.
With B1, the “Avg. IC50” value worked out at 151 nM. The value for [Mpa][code a]S[Phg]CR[Tle]-NH2 (linker 1-5 via mXylyl) [R2064] was 14.9 nM; that for Ac-CAP[Phg]CR[Tle]-NH2 (linker 1-5 via mXylyl) [R2058] was 29.5 nM. Ac-CESICRVLRYSE-NH2 (linker 1-5 via mXylyl) [R2057]: the “Avg. IC50” value stood at 0.943 nM. As for B2, the “Avg. IC50” value was found to be 903 nM. As for Ac-C[Nle]S[Phg]CR[Tle]-NH2 (linker 1-5 via mXylyl) [R2065], the “Avg. IC50” value is 6.1 nM. As to B3, the “Avg. IC50” value is 26.8 nM. For MCESICR[NMeV]-NH2 (linker 2-6 via mXylyl) [R2074] the value was 11600 nM. B4: the “Avg. IC50” value worked out at 11.4 nM. Take B5: the “Avg. IC50” value was found to be 1920 nM. On to Ac-MCESICRV-NH2 (linker 2-6 via mXylyl) [R2008], for which the “Avg. IC50” value was 10.2 nM. As for B6, the “Avg. IC50” value amounted to 118 nM.

As for B7, the “Avg. IC50” value amounted to 13 nM.

On to Ac-C[dA]S[dPhg]CR[Tle]-NH2 (linker 1-5 via mXylyl) [R2060], for which the “Avg. IC50” value came out at 959 nM. Consider B8, for which the “Avg. IC50” value was found to be 12.7 nM. The value for B9 was 4370 nM.

For the molecule B10, the “Avg. IC50” value worked out at 2.6 nM.

As to MCESICRV-NH2 (cysteine pairing not given here) [R2007], the “Avg. IC50” value turned out to be 2000 nM. In the case of Ac-CESICRVLRY-NH2 (linker 1-5 via mXylyl) [R2055], the “Avg. IC50” value amounted to 2.2 nM.

For the molecule MCES[Gly(cPent)]CRV-NH2 (linker 2-6 via mXylyl) [R2077], the “Avg. IC50” value came out at 19.7 nM. Take Ac-CASFCR[Tle]-NH2 (linker 1-5 via mXylyl) [R2059]: the “Avg. IC50” value was 425 nM. As to Ac-CESICRVLRYS-NH2 (linker 1-5 via mXylyl) [R2056], the “Avg. IC50” value amounted to 1.9 nM.

For the molecule [Mpa][code a]A[Phg]CR[Tle]-NH2 (linker 1-5 via mXylyl) [R2079], the “Avg. IC50” value came to 17.8 nM. As for B11, the “Avg. IC50” value was determined as 18.6 nM. For the molecule B12, the “Avg. IC50” value was found to be 19.1 nM. Take B13: the “Avg. IC50” value stood at 13200 nM. {des‑NH2}-C[Aib]A[Phg]CR[Tle]-NH2 (linker 1-5 via mXylyl) [R2078]: the “Avg. IC50” value came to 2.8 nM. In the case of B14, the “Avg. IC50” value was determined as 2470 nM.
